Article PMC10397247

Columns and labels:
[1] = biological target: T1, O16-bH; test: two-hybrid library CCNG1;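 also: natural log of median RNA to DNA barcode read ratio; higher means stronger binding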
T1 chain: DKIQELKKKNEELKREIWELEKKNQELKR

[2] = biological target: T2, O2-bH; test: two-hybrid library CCNG1;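 also: natural log of median RNA to DNA barcode read ratio; higher means stronger binding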
T2 chain: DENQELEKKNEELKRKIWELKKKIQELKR

[3] = biological target: T3, O3-bH; test: two-hybrid library CCNG1;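 also: natural log of median RNA to DNA barcode read ratio; higher means stronger binding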
T3 chain: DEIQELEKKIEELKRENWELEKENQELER

[4] = biological target: T4, O4-bH; test: two-hybrid library CCNG1;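 also: natural log of median RNA to DNA barcode read ratio; higher means stronger binding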
T4 chain: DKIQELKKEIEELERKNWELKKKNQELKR

[5] = biological target: T5, O5-bH; test: two-hybrid library CCNG1;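 also: natural log of median RNA to DNA barcode read ratio; higher means stronger binding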
T5 chain: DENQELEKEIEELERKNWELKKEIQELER

[6] = biological target: T6, O6-bH; test: two-hybrid library CCNG1;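 also: natural log of median RNA to DNA barcode read ratio; higher means stronger binding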
T6 chain: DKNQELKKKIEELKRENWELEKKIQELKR

[7] = biological target: T7, O7-bH; test: two-hybrid library CCNG1
T7 chain: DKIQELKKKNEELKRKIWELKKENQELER

[8] = biological target: T8, O8-bH; test: two-hybrid library CCNG1
T8 chain: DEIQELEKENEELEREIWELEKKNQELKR

[9] = biological target: T9, O9-bH; test: two-hybrid library CCNG1
T9 chain: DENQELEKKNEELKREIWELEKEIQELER

[10] = biological target: T10, 4H2627-bN; test: two-hybrid library CCNG1
T10 chain: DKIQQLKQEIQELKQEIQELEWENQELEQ

[11] = biological target: T11, 4H2673-bN; test: two-hybrid library CCNG1
T11 chain: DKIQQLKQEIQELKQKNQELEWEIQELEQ

[12] = biological target: T12, 4H2702-bN; test: two-hybrid library CCNG1
T12 chain: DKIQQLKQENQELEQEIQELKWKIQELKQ

[13] = biological target: T13, 4H3010-bN; test: two-hybrid library CCNG1
T13 chain: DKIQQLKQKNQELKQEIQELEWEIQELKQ

[14] = biological target: T14, 4H3112-bN; test: two-hybrid library CCNG1
T14 chain: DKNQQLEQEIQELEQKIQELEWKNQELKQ

[15] = biological target: T15, 4H3189-bA; test: two-hybrid library CCNG1
T15 chain: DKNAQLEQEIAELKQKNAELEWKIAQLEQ

[16] = biological target: T16, 4H3427-bN; test: two-hybrid library CCNG1
T16 chain: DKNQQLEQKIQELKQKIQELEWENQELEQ

[17] = biological target: T17, 4H346-bN; test: two-hybrid library CCNG1
T17 chain: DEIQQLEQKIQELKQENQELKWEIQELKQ

[18] = biological target: T18, 4H3926-bN; test: two-hybrid library CCNG1
T18 chain: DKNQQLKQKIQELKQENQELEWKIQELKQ

[19] = biological target: T19, 4H4073-bN; test: two-hybrid library CCNG1
T19 chain: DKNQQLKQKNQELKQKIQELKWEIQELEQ

[20] = biological target: T20, 4H457-bN; test: two-hybrid library CCNG1
T20 chain: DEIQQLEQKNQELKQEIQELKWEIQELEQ

[21] = biological target: T21, 4H575-bN; test: two-hybrid library CCNG1
T21 chain: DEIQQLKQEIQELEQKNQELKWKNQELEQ

[22] = biological target: T22, 4H683-bN; test: two-hybrid library CCNG1
T22 chain: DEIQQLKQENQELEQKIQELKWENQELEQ

[23] = biological target: T23, 4H754-bN; test: two-hybrid library CCNG1
T23 chain: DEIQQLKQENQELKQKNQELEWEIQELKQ

[24] = biological target: T24, 4H780-bN; test: two-hybrid library CCNG1
T24 chain: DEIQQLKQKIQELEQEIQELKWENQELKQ

[25] = biological target: T25, 4H797-bN; test: two-hybrid library CCNG1
T25 chain: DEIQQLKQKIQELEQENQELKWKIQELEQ

[26] = biological target: T26, 4H855-bN; test: two-hybrid library CCNG1
T26 chain: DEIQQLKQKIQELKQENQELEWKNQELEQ

[27] = biological target: T27, 4H883-bH; test: two-hybrid library CCNG1
T27 chain: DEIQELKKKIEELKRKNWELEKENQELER

[28] = biological target: T28, 4H918-bN; test: two-hybrid library CCNG1
T28 chain: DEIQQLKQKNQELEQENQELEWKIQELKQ

[29] = biological target: T29, 4H953-bN; test: two-hybrid library CCNG1
T29 chain: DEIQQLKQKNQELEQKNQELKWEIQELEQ

[30] = biological target: T30, 4H968-bN; test: two-hybrid library CCNG1
T30 chain: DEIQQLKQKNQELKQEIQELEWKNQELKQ

[31] = biological target: T31, O15-bH; test: two-hybrid library CCNG1
T31 chain: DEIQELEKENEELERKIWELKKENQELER

[32] = biological target: T32, O16; test: two-hybrid library CC0; conditions: mean of both orientations
T32 chain: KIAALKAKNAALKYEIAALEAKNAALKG

[33] = biological target: T33, O2; test: two-hybrid library CC0; conditions: mean of both orientations
T33 chain: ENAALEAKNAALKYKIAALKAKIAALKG

[34] = biological target: T34, O3; test: two-hybrid library CC0; conditions: mean of both orientations
T34 chain: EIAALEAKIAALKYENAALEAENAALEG

[35] = biological target: T35, O4; test: two-hybrid library CC0; conditions: mean of both orientations
T35 chain: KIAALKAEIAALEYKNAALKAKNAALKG

[36] = biological target: T36, O5; test: two-hybrid library CC0; conditions: mean of both orientations
T36 chain: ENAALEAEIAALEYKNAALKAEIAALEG

[37] = biological target: T37, O6; test: two-hybrid library CC0; conditions: mean of both orientations
T37 chain: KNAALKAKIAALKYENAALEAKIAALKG

[38] = biological target: T38, O7; test: two-hybrid library CC0; conditions: mean of both orientations
T38 chain: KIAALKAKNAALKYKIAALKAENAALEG

[39] = biological target: T39, O8; test: two-hybrid library CC0; conditions: mean of both orientations
T39 chain: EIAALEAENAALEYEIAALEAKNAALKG

[40] = biological target: T40, O9; test: two-hybrid library CC0; conditions: mean of both orientations
T40 chain: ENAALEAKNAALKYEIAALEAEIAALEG

[41] = biological target: T41, 4H2586-bN; test: two-hybrid library CCNG1
T41 chain: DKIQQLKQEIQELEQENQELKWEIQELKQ

[42] = biological target: T42, 4H3628-bH; test: two-hybrid library CCNG1
T42 chain: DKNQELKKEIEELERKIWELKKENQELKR

[43] = biological target: T43, 4H349-bA; test: two-hybrid library CCNG1
T43 chain: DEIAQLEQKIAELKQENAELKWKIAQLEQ

interaction score [1] | interaction score [2] | interaction score [3] | interaction score [4] | interaction score [5] | interaction score [6] | interaction score [7] | interaction score [8] | interaction score [9] | interaction score [10] | interaction score [11] | interaction score [12] | interaction score [13] | interaction score [14] | interaction score [16] | interaction score [17] | interaction score [18] | interaction score [19] | interaction score [20] | interaction score [21] | Binder | also measured
0.441 | -1.39 | 1.41 | 0.0481 | -0.611 | 1.06 | 1.17 | 0.7 | -0.421 | – | – | – | – | – | – | – | – | – | – | – | DKIQELKKKNEELKREIWELEKKNQELKR [O16-bH] | –
– | – | – | – | – | – | – | – | – | -1.18 | -0.336 | -0.837 | -0.478 | -0.418 | -0.336 | -1.49 | -0.972 | 0.24 | -1.44 | 0.336 | DKIQQLKQEIQELKQEIQELEWENQELEQ [4H2627-bN] | interaction score [15]: -2.27; interaction score [22]: -0.185; interaction score [23]: -1.21; interaction score [24]: -0.619; interaction score [25]: -2.2; interaction score [26]: -0.307; interaction score [27]: 0.737; interaction score [28]: -0.935; interaction score [29]: -1.1; interaction score [30]: -0.499
1.45 | -1.83 | -0.0193 | 0.39 | -1.91 | 1.63 | 1.56 | -1.78 | 0.497 | – | – | – | – | – | – | – | – | – | – | – | DENQELEKEIEELERENWELEKKIQELKR [O14-bH] | interaction score [31]: 1.43
– | – | – | – | – | – | – | – | – | – | – | – | – | – | – | – | – | – | – | – | KIAALKAKNAALKYEIAALEAKNAALKG [O16] | interaction score [32]: -2.76; interaction score [33]: -2.67; interaction score [34]: -2.69; interaction score [35]: -2.71; interaction score [36]: -2.68; interaction score [37]: -1.77; interaction score [38]: -2.48; interaction score [39]: 0.382; interaction score [40]: -2.65
– | – | – | – | – | – | – | – | – | -0.115 | -1.47 | -0.448 | 0.0264 | -1.32 | 0.526 | 1.97 | 0.209 | -0.362 | -0.912 | -1.1 | DKIQQLKQEIQELEQENQELKWEIQELKQ [4H2586-bN] | interaction score [41]: 0.806; interaction score [42]: 1.41; interaction score [22]: 0.147; interaction score [23]: -1.88; interaction score [24]: -1.16; interaction score [25]: -0.469; interaction score [26]: -0.916; interaction score [28]: -1.12; interaction score [29]: -1.01; interaction score [30]: -1.31
-1.44 | -2.29 | 0.496 | -0.471 | 0.194 | -0.527 | -0.211 | 0.569 | -0.0315 | – | – | – | – | – | – | – | – | – | – | – | DKNQELKKKIEELKRKNWELKKEIQELER [O13-bH] | interaction score [31]: 1.51
– | – | – | – | – | – | – | – | – | 1.7 | -0.269 | -0.111 | -0.741 | -0.567 | -0.445 | 0.142 | -0.39 | 0.223 | -1.9 | -0.248 | DENQQLKQKIQELEQKIQELEWKNQELEQ [4H1831-bN] | interaction score [41]: -0.466; interaction score [43]: -1.73; interaction score [22]: -2.14; interaction score [23]: -0.46; interaction score [24]: -1.02; interaction score [25]: -0.203; interaction score [26]: -0.282; interaction score [28]: -0.624; interaction score [29]: -0.677; interaction score [30]: -0.157
1.62 | -0.549 | -0.38 | -1.19 | -1.6 | -0.0351 | 1.73 | 0.416 | -0.267 | – | – | – | – | – | – | – | – | – | – | – | DEIQELEKENEELERKIWELKKENQELER [O15-bH] | interaction score [31]: 0.268
